Patent publication US20050037969A1 (ARBOR VITA, published 2005)
Ends that are not written are not given here. * marks the point of attachment. Biotin = O=C1N[C@H]2[C@H](CS[C@H]2CCCCC(=O)*)N1

B1: CD6 C-terminal peptide AA6L, biotinylated (peptide)
peptide: Biotin-SPQPDSTDNDDYDDISAA
B2: CD49F C-terminal peptide AA12L, biotinylated (peptide)
peptide: Biotin-HKAEIHAQPSDKERLTSDA
notes: also called CD49F (Aform, alpha6)
B3: Glycophorin C C-terminal peptide AA37L, biotinylated (peptide)
peptide: Biotin-QGDPALQDAGDSSRKEYFI
notes: also called GC
B4: Clasp-2 C-terminal peptide AA2L, biotinylated (peptide)
peptide: Biotin-ISGTPTSTMVHGMTSSSSVV

Target: T1, GST-mouse syntenin fusion protein (Mus musculus, UniProt O08992 108-286)
T1 construct: also called Mus musculus Syntenin; not shown: glutathione S-transferase encoded by vector pGEX-3X (Pharmacia)
T1 chain: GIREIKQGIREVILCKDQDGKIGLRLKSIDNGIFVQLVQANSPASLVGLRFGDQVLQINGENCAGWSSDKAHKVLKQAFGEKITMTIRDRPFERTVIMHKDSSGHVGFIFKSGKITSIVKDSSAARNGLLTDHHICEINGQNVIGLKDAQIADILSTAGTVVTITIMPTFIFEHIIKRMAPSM
Assay: A/G assays

Binding result, no binding:
B1
B2
B3
B4

Target: T2, GST-TAX-IP43 PDZ domain fusion protein (human, UniProt Q13884 109-180)
T2 construct: also called TAX43; not shown: glutathione S-transferase encoded by vector pGEX-3X (Pharmacia)
T2 sequence: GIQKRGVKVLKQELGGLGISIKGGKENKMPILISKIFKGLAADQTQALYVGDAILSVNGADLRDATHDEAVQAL
Assay: A/G assays

Binding result, no binding:
B1
B2
B3
B4

Target: T3, MINT3 PDZ-GST fusion protein
T3 construct: Order of GST and PDZ part and limits not seen in the excerpts
T3 chain: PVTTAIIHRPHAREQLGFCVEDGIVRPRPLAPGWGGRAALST
Assay: A/G assays

Binding result, no binding:
B1
B2
B3
B4

Target: T4, K316 PDZ-GST fusion protein (Homo sapiens (Human), UniProt Q14CM0 72-159)
T4 construct: Order of GST and PDZ part and limits not seen in the excerpts
Assay: A/G assays

T4 sequence (Q14CM0 72-159 limits assumed): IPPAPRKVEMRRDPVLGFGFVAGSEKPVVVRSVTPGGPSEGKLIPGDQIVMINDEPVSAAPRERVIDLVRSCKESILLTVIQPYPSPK

Binding result, no binding:
B1
B2
B3
B4

Target: T5, GST-KIAA0303 PDZ domain fusion protein (Homo sapiens (Human), UniProt O15021 1138-1228)
T5 construct: also called K303; not shown: glutathione S-transferase encoded by vector pGEX-3X (Pharmacia)
T5 sequence: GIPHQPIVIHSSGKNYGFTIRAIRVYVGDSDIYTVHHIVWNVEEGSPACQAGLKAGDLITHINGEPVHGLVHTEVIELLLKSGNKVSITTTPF
Assay: A/G assays

Binding result, no binding:
B1
B2
B3
B4

Target: T6, KIAA0807 (PDZ domain)-GST fusion protein (human, UniProt Q6P0Q8 1104-1192)
T6 construct: also called K807; KIAA807; not shown: glutathione S-transferase encoded by vector pGEX-3X (Pharmacia)
T6 sequence: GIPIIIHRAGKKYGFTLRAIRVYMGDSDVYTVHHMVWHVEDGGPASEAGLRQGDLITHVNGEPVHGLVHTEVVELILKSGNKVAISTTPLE
Assay: A/G assays

Binding result, no binding:
B1
B2
B3
B4

Target: T7, GEF PDZ-GST fusion protein (Homo sapiens (Human), UniProt Q8TEU7 293-400)
T7 construct: The label GEF is not explained in the excerpts
T7 sequence: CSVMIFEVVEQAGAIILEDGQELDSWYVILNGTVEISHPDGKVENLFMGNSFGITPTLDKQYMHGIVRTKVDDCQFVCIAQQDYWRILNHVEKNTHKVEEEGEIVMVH
Assay: A/G assays

Binding result, no binding:
B1
B2
B3
B4

Target: T8, PICK1 PDZ-GST fusion protein (Bos taurus (Bovine), UniProt Q2T9M1 17-105)
T8 construct: Order of GST and PDZ part and limits not seen in the excerpts
Assay: A/G assays

T8 sequence (Q2T9M1 other isoform, or with tags, fused parts or gaps limits assumed): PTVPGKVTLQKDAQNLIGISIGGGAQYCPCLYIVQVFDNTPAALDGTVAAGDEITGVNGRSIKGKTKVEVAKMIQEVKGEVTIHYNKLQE

Binding result, no binding:
B1
B2
B3
B4

Target: T9, GST-PTN-4 PDZ domain fusion protein (Homo sapiens (Human), UniProt P29074 517-605)
T9 construct: also called protein-tyrosine phosphatase meg1; not shown: glutathione S-transferase encoded by vector pGEX-3X (Pharmacia)
T9 sequence: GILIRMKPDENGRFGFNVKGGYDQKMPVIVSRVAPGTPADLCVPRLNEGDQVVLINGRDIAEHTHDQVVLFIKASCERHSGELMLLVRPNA
Assay: A/G assays

Binding result, no binding:
B1
B2
B3
B4

Target: T10, NOS1 PDZ-GST fusion protein (Homo sapiens (Human), UniProt P29475 11-100)
T10 construct: Order of GST and PDZ part and limits not seen in the excerpts
Assay: A/G assays

T10 sequence (P29475 11-100 limits assumed): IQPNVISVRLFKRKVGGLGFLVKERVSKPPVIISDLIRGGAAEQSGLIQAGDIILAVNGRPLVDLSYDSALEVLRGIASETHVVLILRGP

Binding result, no binding:
B1
B2
B3
B4

Target: T11, TAX-IP33 PDZ-GST fusion protein (Homo sapiens (Human), UniProt O14910 103-193)
T11 construct: Order of GST and PDZ part and limits not seen in the excerpts
T11 sequence: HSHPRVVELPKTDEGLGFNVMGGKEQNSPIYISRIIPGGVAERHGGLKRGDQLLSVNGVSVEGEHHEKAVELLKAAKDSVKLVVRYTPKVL
Assay: A/G assays

Binding result, no binding:
B1
B2
B3
B4

Target: T12, GST-DLG5 (p-dlg) PDZ domain fusion protein (Human, UniProt Q8TDM6 1343-1583)
T12 construct: also called Human discs large protein p-dlg; not shown: glutathione S-transferase encoded by vector pGEX-3X (Pharmacia)
T12 sequence: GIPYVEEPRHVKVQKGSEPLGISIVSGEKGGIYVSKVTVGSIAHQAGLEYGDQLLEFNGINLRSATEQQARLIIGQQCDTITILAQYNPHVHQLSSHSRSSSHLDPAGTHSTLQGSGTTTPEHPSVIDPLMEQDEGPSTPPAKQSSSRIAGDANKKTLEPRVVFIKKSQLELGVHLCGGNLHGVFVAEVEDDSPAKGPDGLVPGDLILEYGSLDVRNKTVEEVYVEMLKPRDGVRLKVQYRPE
Assay: A/G assays

Binding result, no binding:
B1
B2
B3
B4

Target: T13, SP short PDZ-GST fusion protein (Homo sapiens (Human), UniProt O43464 350-435)
T13 construct: The label SP short is not explained in the excerpts
T13 sequence: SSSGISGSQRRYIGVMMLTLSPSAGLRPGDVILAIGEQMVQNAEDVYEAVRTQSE
Assay: A/G assays

Binding result, no binding:
B1
B2
B3
B4

Target: T14, GST-CASK PDZ domain fusion protein (Homo sapiens, UniProt O14936 486-575)
T14 construct: also called Homo sapiens CASK protein
T14 sequence: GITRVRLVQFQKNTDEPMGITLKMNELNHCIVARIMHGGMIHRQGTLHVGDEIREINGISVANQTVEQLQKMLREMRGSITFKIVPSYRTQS
Assay: A/G assays

Binding result, no binding:
B1
B2
B3
B4

Target: T15, K559 PDZ-GST fusion protein (Homo sapiens (Human), UniProt Q9Y6V0 4489-4593)
T15 construct: Order of GST and PDZ part and limits not seen in the excerpts
T15 sequence: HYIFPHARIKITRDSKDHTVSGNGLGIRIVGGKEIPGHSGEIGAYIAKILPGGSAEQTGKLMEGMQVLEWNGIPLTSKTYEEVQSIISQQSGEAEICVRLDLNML
Assay: A/G assays

Binding result, no binding:
B1
B2
B3
B4

Target: T16, TAX-IP2L PDZ-GST fusion protein (Homo sapiens (Human), UniProt Q8TF64 107-197)
T16 construct: Order of GST and PDZ part and limits not seen in the excerpts
T16 sequence: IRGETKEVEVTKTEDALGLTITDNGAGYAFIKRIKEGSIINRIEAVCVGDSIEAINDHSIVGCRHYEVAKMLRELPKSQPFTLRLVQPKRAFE
Assay: A/G assays

Binding result, no binding:
B1
B2
B3
B4

Target: T17, GST-DVL1 PDZ domain fusion protein (human, UniProt O14640 247-339)
T17 construct: also called human dishevelled segment polarity protein homolog; not shown: glutathione S-transferase encoded by vector pGEX-3X (Pharmacia)
T17 sequence: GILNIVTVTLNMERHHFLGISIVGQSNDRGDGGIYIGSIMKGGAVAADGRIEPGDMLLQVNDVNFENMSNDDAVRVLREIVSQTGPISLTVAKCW
Assay: A/G assays

Binding result, no binding:
B1
B2
B3
B4
